Earlier results as cited in paper PMC4225561.

Biological target: Myo4p 27-residue fragment (Saccharomyces cerevisiae) (UniProt P32492)
Experiment: pull-down

UniProt P32492, sequence (P32492 528-554): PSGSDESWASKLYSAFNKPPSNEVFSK

Kd: 1 µM
Substance: She4p (from UniProt P51534)
